Measured values taken from US20010041350A1.

Target: truncated polypeptides of the in vitro translation of the DNA ligase III cDNA
Experiment: pull-down: XRCC1-His incubated with [35S]methionine-labeled in vitro translation product, captured on NTA-agarose beads, eluted with 200 mM imidazole

- percent of translation product recovered with XRCC1-His: < 90%
Substance: Histidine-tagged recombinant XRCC1 protein (from UniProt P18887 1-633)
